The text below walks through data of the supplement of paper PMC5998384.

In series [1] the test system is HeLa Kyoto. The experiment in a line: solubility in G1/S (NP-40 vs SDS abundance) (log2 ratio); higher = more soluble. The following applies: cell cycle stage: G1/S.
Series [2] relates to HeLa Kyoto. Description: melting temperature (median over replicates), in situ; higher = more thermally stable.
Series [3] concerns HeLa Kyoto. The experiment in a line: solubility change mitosis vs G1/S (difference of NP-40 vs SDS log2 ratios) (log2 ratio difference); higher = more soluble in mitosis.
Series [4] concerns HeLa Kyoto. Description: thermal stability score vs G1/S (z-score of summed log2 fold changes over temperatures); higher = more thermally stable than in G1/S.
The mark [5] stands for this setting: cell cycle stage: early G1 (4.5 h after nocodazole release).
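Throughout, for melting temperature (median over replicates), in situ: HeLa Kyoto cells synchronized by double thymidine or nocodazole block, proteins quantified by TMT10plex mass spectrometry, three independent biological replicates.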
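Throughout, for solubility change mitosis vs G1/S (difference of NP-40 vs SDS log2 ratios): synchronized HeLa Kyoto cells (double thymidine block for G1/S, nocodazole release for mitosis), protein amounts in NP-40 versus SDS lysates quantified by mass spectrometry, three biological replicates.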
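Throughout, for solubility in G1/S (NP-40 vs SDS abundance): HeLa Kyoto cells arrested at G1/S by double thymidine block, proteins quantified by TMT10plex mass spectrometry in mild NP-40 versus SDS extracts, three biological replicates.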
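Throughout, for thermal stability score vs G1/S (z-score of summed log2 fold changes over temperatures): synchronized HeLa Kyoto cells, proteins quantified by TMT10plex mass spectrometry, three biological replicates, mitosis taken 0.5 h after nocodazole release, G1/S directly after double thymidine block.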

As to “MTVSGPGTPEPRPATPGASSVEQLRKEGNELFKCGDYGGALAAYTQALGLDATPQDQAVLHRNRAACHLKLEDYDKAETEASKAIEKDGGDVKALYRRSQALEKLGRLDQAVLDLQRCVSLEPKNKVFQEALRNIGGQIQEKVRYMSSTDAKVEQMFQILLDPEEKGTEKKQKASQNLVVLAREDAGAEKIFRSNGVQLLQRLLDMGETDLMLAALRTLVGICSEHQSRTVATLSILGTRRVVSILGVESQAVSLAACHLLQVMFDALKEGVKKGFRGKEGAIIVDPARELKVLISNLLDLLTEVGVSGQGRDNALTLLIKAVPRKSLKDPNNSLTLWVIDQGLKKILEVGGSLQDPPGELAVTANSRMSASILLSKLFDDLKCDAERENFHRLCENYIKSWFEGQGLAGKLRAIQTVSCLLQGPCDAGNRALELSGVMESVIALCASEQEEEQLVAVEALIHAAGKAKRASFITANGVSLLKDLYKCSEKDSIRIRALVGLCKLGSAGGTDFSMKQFAEGSTLKLAKQCRKWLCNDQIDAGTRRWAVEGLAYLTFDADVKEEFVEDAAALKALFQLSRLEERSVLFAVASALVNCTNSYDYEEPDPKMVELAKYAKQHVPEQHPKDKPSFVRARVKKLLAAGVVSAMVCMVKTESPVLTSSCRELLSRVFLALVEEVEDRGTVVAQGGGRALIPLALEGTDVGQTKAAQALAKLTITSNPEMTFPGERIYEVVRPLVSLLHLNCSGLQNFEALMALTNLAGISERLRQKILKEKAVPMIEGYMFEEHEMIRRAATECMCNLAMSKEVQDLFEAQGNDRLKLLVLYSGEDDELLQRAAAGGLAMLTSMRPTLCSRIPQVTTHWLEILQALLLSSNQELQHRGAVVVLNMVEASREIASTLMESEMMEILSVLAKGDHSPVTRAAAACLDKAVEYGLIQPNQDGE [UNC45A]”, the “solubility in G1/S (log2)” value in the series with HeLa Kyoto [1] stood at 0.2. In addition, the melting temperature in the series on HeLa Kyoto [2] (cell cycle stage: G1/S) is 48.6 °C; in the series on HeLa Kyoto [2] (cell cycle stage: mitosis) it was 48.8 °C. Besides, the “solubility change mitosis (log2)” value with HeLa Kyoto [3] is -0.111. The thermal stability score was found to be 0.271 with HeLa Kyoto [4] (setting [5]) and 1.37 in the series on HeLa Kyoto [4] (cell cycle stage: mitosis).

For “MGSAGLSRLHGLFAVYKPPGLKWKHLRDTVELQLLKGLNARKPPAPKQRVRFLLGPMEGSEEKELTLTATSVPSFINHPLVCGPAFAHLKVGVGHRLDAQASGVLVLGVGHGCRLLTDMYNAHLTKDYTVRGLLGKATDDFREDGRLVEKTTYDHVTREKLDRILAVIQGSHQKALVMYSNLDLKTQEAYEMAVRGLIRPMNKSPMLITGIRCLYFAPPEFLLEVQCMHETQKELRKLVHEIGLELKTTAVCTQVRRTRDGFFTLDSALLRTQWDLTNIQDAIRAATPQVAAELEKSLSPGLDTKQLPSPGWSWDSQGPSSTLGLERGAGQ [TRUB2]”, the “solubility in G1/S (log2)” value in the series with HeLa Kyoto [1] was -0.103. Further, the melting temperature was found to be 50.2 °C in the series on HeLa Kyoto [2] (cell cycle stage: G1/S) and 50 °C in the series with HeLa Kyoto [2] (cell cycle stage: mitosis). The “solubility change mitosis (log2)” value in the series on HeLa Kyoto [3] was determined as 0.16. Moreover, the thermal stability score is -0.241 with HeLa Kyoto [4] (setting [5]) and 0.385 with HeLa Kyoto [4] (cell cycle stage: mitosis).

“MAGYLRVVRSLCRASGSRPAWAPAALTAPTSQEQPRRHYADKRIKVAKPVVEMDGDEMTRIIWQFIKEKLILPHVDIQLKYFDLGLPNRDQTDDQVTIDSALATQKYSVAVKCATITPDEARVEEFKLKKMWKSPNGTIRNILGGTVFREPIICKNIPRLVPGWTKPITIGRHAHGDQYKATDFVADRAGTFKMVFTPKDGSGVKEWEVYNFPAGGVGMGMYNTDESISGFAHSCFQYAIQKKWPLYMSTKNTILKAYDGRFKDIFQEIFDKHYKTDFDKNKIWYEHRLIDDMVAQVLKSSGGFVWACKNYDGDVQSDILAQGFGSLGLMTSVLVCPDGKTIEAEAAHGTVTRHYREHQKGRPTSTNPIASIFAWTRGLEHRGKLDGNQDLIRFAQMLEKVCVETVESGAMTKDLAGCIHGLSNVKLNEHFLNTTDFLDTIKSNLDRALGRQ [IDH2]”: the “solubility in G1/S (log2)” value with HeLa Kyoto [1] was found to be 0.137. Moreover, the results for the melting temperature in the series with HeLa Kyoto [2] (cell cycle stage: G1/S) and with HeLa Kyoto [2] (cell cycle stage: mitosis) were 53.7 °C and 54.1 °C, respectively. Besides, in the series on HeLa Kyoto [3], the “solubility change mitosis (log2)” value was -0.113. In addition, the thermal stability score in the series with HeLa Kyoto [4] (setting [5]) is -0.161; in the series with HeLa Kyoto [4] (cell cycle stage: mitosis) it was 0.659.

With “MASSSGSKAEFIVGGKYKLVRKIGSGSFGDIYLAINITNGEEVAVKLESQKARHPQLLYESKLYKILQGGVGIPHIRWYGQEKDYNVLVMDLLGPSLEDLFNFCSRRFTMKTVLMLADQMISRIEYVHTKNFIHRDIKPDNFLMGIGRHCNKLFLIDFGLAKKYRDNRTRQHIPYREDKNLTGTARYASINAHLGIEQSRRDDMESLGYVLMYFNRTSLPWQGLKAATKKQKYEKISEKKMSTPVEVLCKGFPAEFAMYLNYCRGLRFEEAPDYMYLRQLFRILFRTLNHQYDYTFDWTMLKQKAAQQAASSSGQGQQAQTPTGKQTDKTKSNMKGF [CSNK1A1]”, the “solubility in G1/S (log2)” value in the series with HeLa Kyoto [1] is -0.00541. The melting temperature in the series on HeLa Kyoto [2] (cell cycle stage: G1/S) stood at 49.6 °C; in the series on HeLa Kyoto [2] (cell cycle stage: mitosis), 50.2 °C. The “solubility change mitosis (log2)” value in the series with HeLa Kyoto [3] was -0.0146. Moreover, the thermal stability score is 1.17 with HeLa Kyoto [4] (setting [5]) and 1.69 in the series with HeLa Kyoto [4] (cell cycle stage: mitosis).
